According to US20230226096A1 (Orna Therapeutics, Inc., priority 2020, published 2023):

B1: Yokose virus (nucleic acid, listed as Yokose virus)
DNA: AGTAAATTTTGCGTGCTAGTCGCTGAGCGTCAGACCGCAAAGTGAGTTTTTAGTGATCTAAAGTGAGGAGTTATTCTTACTGTCATCAAACACTACAAATAAACACGTTGAAATTATTTCCGGAAGAACAACTGTCCGGAATCAAAGACG
B2: GB virus C/Hepatitis G virus (nucleic acid)
DNA: CCCCCGGCACTGGGTGCAAGCCCCAGAAACCGACGCCTATCTAAGTAGACGCAATGACTCGGCGCCGACTCGGCGACCGGCCAAAAGGTGGTGGATGGGTGATGACAGGGTTGGTAGGTCGTAAATCCCGGTCACCTTGGTAGCCACTATAGGTGGGTCTTAAGAGAAGGTTAAGATTCCTCTTGTGCCTGCGGCGAGACCGCGCACGGTCCACAGGTGTTGGCCCTACCGGTGGGAATAAGGGCCCGACGTCAGGCTCGTCGTTAAACCGAGCCCGTTACCCACCTGGGCAAACGACGCCCACGTACGGTCCACGTCGCCCTTCAATGTCTCTCTTGACCAATAGGCGTAGCCGGCGAGTTGACAAGGACCAGTGGGGGCCGGGGGCTTGGAGAGGGACTCCAAGTCCCGCCCTTCCCGGTGGGCCGGGAAATGC
B3: Rosavirus C NFSM6F (nucleic acid)
DNA: CAGGGAGATCTCCATGAATAATCTTTTCCACCCTCTTTAGCGTCTATGCTATTGAGGACGGGTTGGAGCCCCGTTGACCCAGCGTCAGAGTGTGTCGGTAGCAGGCTTTCTGCTCTCGCCCCATGCCGGCCACACCTCCCATTAGTGATGTGAAGGTTGTAAGTTACATGTGAAAAGGTTTCTAATAATTGAGCTGAATGTAGCGATTACCTAAGGTGAGCGGATTCCCCCACGTGGTAACACGTGCCTCTCAGGCCAAAAGCCAAGGTGTTAAAAGCACCCCTTAGGTAGGCCACTACCCCGTGGCCTCAGTTCTCTTAGAAGATTCACTTAGTAGTGTGTGCACTGGCAACTCTTAAGCAGAGCTAGTGAGTGGGCTAAGGATGCCCTGAAGGTACCCGCAGGTAACGTTAAGACACTGTGGATCTGATCAGGGGCTCGAGTGCTGAAGCTTTACAGAGGTAGCTCGAGTTAAAAAACGTCTATGCCCCTCCCCCACGGGAGTGGGGGTTCCCCCACACCAATTTTAGATTGCACT
modifications: Rosavirus C
B4: Bussuquara virus (nucleic acid)
DNA: AGTATTTCTTCTGCGTGAGACCATTGCGACAGTTCGTACCGGTGAGTTTTGACTTAACGCAGTGAGAAAAGTTTTCGAGGAAAGACGAGAAGCGAATTCTCTGA
modifications: chemistry not fully specified; the letters are possibly those of the target site
B5: Culex theileri flavivirus (nucleic acid, listed as Flavivirus sp.)
DNA: ATATAAATCCCAGTTTGGTTAAACCTATTTCAAGGCTTAAGTTGTTTATTATTTTATCGCCGCTCGTGACTATAAAGTTGCCTAGCGGAGAGAGATAAAGAAGAAGGAGTTCAAGGCTCAGGGCAGGGCGCAAGTTCCCTGGTCCCTAGGCCGCTCGCAGGAAGGAGGAGTGAAGAAGAAGAAAGAGAAGGAGAGGACCACCGCCGAAAGAAGGCAGGTGCCTCACAAGAGGGCCAACCAGCGTGTTGGACCAGTGGCCAACGCCGGACGGCGTGGTGGCCTGCTGGGACGCCTGGGGATTGGATGGAGTGCCTTCCTACAGGAAGACATCGTTCAAGCCATC
B6: Equine hepacivirus (nucleic acid, listed as Hepacivirus sp.)
DNA: ACCTCCGTGCTATGCACGGTGCGTTGTCAGCGTTTTGCGCTTGCATGCGCTACACGCGTCGTCCAACGCGGAGGGATTCTTCCACATTACCATGTGTCACTCCCCCTATGGAGGGTTCCACCCCGCCCACACGGAAATAGGTTAACCATACCTATAGTACGGGTGAGCGGGTCCTCCTAGGGCCCCCCCGGCAGGTCGAGGGAGCTGAAATTCGTGAATCCGTGAGTACACGGAAATCGCGGCTTGAACGTCATACGTGACCTTCGGAGCCGAAATTTGGGCGTGCCCCACGAAGGAAGGCGGGGGCGGTGTTGGGCCGCCGCCCCCTTTATCCCACGGTCTGATAGGATGCTTGCGAGGGCACCTGCCGGTCTCGTAGACCATAGGAC
B7: Rodent pegivirus (nucleic acid, listed as Pegivirus sp.)
DNA: GGACTTCGGTCCCCCTGTTACTCTGCGAGCCACCGCAGAGCCAGGGTTGGTACGCCCGAGGTGTTAGACCCCGGCCGAAAGCTCCTAACCATGGGGTTAGTAGGACGTGGTAAATGCCACTGAGGGGTTGGAGAGCTGGTAGAGCGAGTAAGTCGGCGTAAGGCCCGAGTACGGGCCTCCCAGCCCGGGTCAGCCTAAACCTGGCTGTGATACCCGGTGCATGGAGGGCGTGTCCCAACGCTCGATCGCTGTAGGGTGGGTCCCTGCAGTTGGGTGTGGCTACCCTGCTCGTACTGCTTGATAGAGTCCCGGCGGACGGACCAGCTCTCGTCAGTCCGTGGAGTTGCAC
B8: Theiler's disease-associated virus (nucleic acid)
DNA: TGATACCGTGTCCCGGTACGACCTCGCGCGTCCCCAAGCTCGCCCTGAGGGGGGAGCGTAAGGGCGCGTAGTGGGGTAGCCCCCCAAACCGAGCCACCCTAGTGAGTGACTTTAGAATGGTTAGGGAGACTACCGCCTTCGCTGTTTGGGGACCTAATGATCCGCGTGCCAGGGTTCTTCGGGTAAATCCCGGCGCGGTGTTTTGGGTTCAGGGCAGTAGGGGCAGACGGGCCAGCAGTCGCTGGTTCCTGGTACCACCACCCTATCCGGACGACCTCCCTCACGAAAGGTCGCCACGGTCTGTGGCTCGACGACGCCTATAATTCAGTCCGAGGGGCGCAGCCCTCGTTAAACTTAGGCAAGGTTCCTCGCCATTGATTTGGCCAGGGGTTTAAGTGAACGCCGCCCTTTTAATGTTTAATAGGGTTCTTTCCCGGCGGGTTGACAAACACTTCCCTGGGCTCTTCGTTGGCCTCGGTTCCTTGATGCTTCGGCACCCATGAGCGCACAGGGGGGGGACCCTGCGACAGTCCGCCAAGAGGAAAATCCTTCGGGTGACCTCGTGCGCAACCCAATCCCTTCTTCTTCCACATGGCGTGTCTGTGGTGCATGCTGTG
B9: Equine Pegivirus 1 (nucleic acid, listed as Pegivirus sp.)
DNA: AGAATGGGGAGTTAACTCCTGGCACTGGCCCGAAGCATGAACTGATCGCGGTGGCAGGGTTCTTCGGGTAAATCCCGGCCGCGTGTTGTGATTGTGTTAGGGCAGGTGACAGTCGGCAGGGTCGACCCCCTGCTTCAGGACCACTGTCTTCCTGGACGACCGTTGCTGAAAAAGGGCCGCCACGGTCTGTAGCTCGCCGACGCTTCTAATTCAGGCCGGAGGACCACGCTCCGTAATCGAGCCCAAGTACTCAAACCCCAGCACCCCTGGGTCACGCCCTACGCCGCCCTTTTAACGCTTCGGCTAATAGGGTCTATCCGGCGGGTTGACAAAGGGCGCAGGGTTACCTGGTACTACGAGCTTGGGTGTCCCTGGGAGTAATCCCAGGGTGCC
B10: Zika Virus (nucleic acid, listed as Zika virus)
DNA: AGTTGTTGATCTGTGTGAGTCAGACTGCGACAGTTCGAGTCTGAAGCGAGAGCTAACAACAGTATCAACAGGTTTAATTTGGATTTGGAAACGAGAGTTTCTGGTC
modifications: chemistry not fully specified; the letters are possibly those of the target site

Each molecule was assayed on HEK293 cells. Details: luminescence from secreted Gluc in supernatant 24 hours after transfection of HEK293 cells; circular RNA encoding Gluc with the named IRES (UTR truncated to 675 nt).
Type: cell-based, human

| Molecule | Expression |
| --- | --- |
| B1 | 8.55E+04 |
| B2 | 1.36E+05 |
| B3 | 6.84E+05 |
| B4 | 8.20E+04 |
| B5 | 8.52E+04 |
| B6 | 8.40E+04 |
| B7 | 1.79E+05 |
| B8 | 7.84E+04 |
| B9 | 8.80E+04 |
| B10 | 8.61E+04 |
